The values that follow come from IntAct's records for PubMed 22807449.

To fix the notation:
B1: Natural cytotoxicity triggering receptor 3 (Homo sapiens), O14931 (parent)
chain: MAWMLLLILIMVHPGSCALWVSQPPEIRTLEGSSAFLPCSFNASQGRLAIGSVTWFRDEVVPGKEVRNGTPEFRGRLAPLASSRFLHDHQAELHIRDVRGHDASIYVCRVEVLGLGVGTGNGTRLVVEKEHPQLGAGTVLLLRAGFYAVSFLSVAVGSTVYYQGKCLTWKGPRRQLPAVVPAPLPPPCGSSAHLLPPVPGG
B2: Natural cytotoxicity triggering receptor 3 (Homo sapiens), O14931 (parent)
chain: B1 chain
partner: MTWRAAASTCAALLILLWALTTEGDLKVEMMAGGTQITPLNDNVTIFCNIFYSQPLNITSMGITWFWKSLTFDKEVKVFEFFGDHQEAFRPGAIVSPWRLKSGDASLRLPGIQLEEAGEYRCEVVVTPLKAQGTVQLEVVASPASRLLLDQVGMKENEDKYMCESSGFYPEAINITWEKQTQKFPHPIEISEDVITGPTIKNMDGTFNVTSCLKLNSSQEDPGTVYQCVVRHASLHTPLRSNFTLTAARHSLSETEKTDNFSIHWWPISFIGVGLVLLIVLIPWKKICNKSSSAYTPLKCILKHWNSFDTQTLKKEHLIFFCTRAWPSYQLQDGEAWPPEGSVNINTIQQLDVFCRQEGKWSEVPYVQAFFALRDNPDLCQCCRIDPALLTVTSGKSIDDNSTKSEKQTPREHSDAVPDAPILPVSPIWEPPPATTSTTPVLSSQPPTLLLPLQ

The first experiment covers variants of B1. The following applies: with bag6_human BAG6, P46379.
Sequence of bag6_human BAG6, P46379 (P46379 whole entry): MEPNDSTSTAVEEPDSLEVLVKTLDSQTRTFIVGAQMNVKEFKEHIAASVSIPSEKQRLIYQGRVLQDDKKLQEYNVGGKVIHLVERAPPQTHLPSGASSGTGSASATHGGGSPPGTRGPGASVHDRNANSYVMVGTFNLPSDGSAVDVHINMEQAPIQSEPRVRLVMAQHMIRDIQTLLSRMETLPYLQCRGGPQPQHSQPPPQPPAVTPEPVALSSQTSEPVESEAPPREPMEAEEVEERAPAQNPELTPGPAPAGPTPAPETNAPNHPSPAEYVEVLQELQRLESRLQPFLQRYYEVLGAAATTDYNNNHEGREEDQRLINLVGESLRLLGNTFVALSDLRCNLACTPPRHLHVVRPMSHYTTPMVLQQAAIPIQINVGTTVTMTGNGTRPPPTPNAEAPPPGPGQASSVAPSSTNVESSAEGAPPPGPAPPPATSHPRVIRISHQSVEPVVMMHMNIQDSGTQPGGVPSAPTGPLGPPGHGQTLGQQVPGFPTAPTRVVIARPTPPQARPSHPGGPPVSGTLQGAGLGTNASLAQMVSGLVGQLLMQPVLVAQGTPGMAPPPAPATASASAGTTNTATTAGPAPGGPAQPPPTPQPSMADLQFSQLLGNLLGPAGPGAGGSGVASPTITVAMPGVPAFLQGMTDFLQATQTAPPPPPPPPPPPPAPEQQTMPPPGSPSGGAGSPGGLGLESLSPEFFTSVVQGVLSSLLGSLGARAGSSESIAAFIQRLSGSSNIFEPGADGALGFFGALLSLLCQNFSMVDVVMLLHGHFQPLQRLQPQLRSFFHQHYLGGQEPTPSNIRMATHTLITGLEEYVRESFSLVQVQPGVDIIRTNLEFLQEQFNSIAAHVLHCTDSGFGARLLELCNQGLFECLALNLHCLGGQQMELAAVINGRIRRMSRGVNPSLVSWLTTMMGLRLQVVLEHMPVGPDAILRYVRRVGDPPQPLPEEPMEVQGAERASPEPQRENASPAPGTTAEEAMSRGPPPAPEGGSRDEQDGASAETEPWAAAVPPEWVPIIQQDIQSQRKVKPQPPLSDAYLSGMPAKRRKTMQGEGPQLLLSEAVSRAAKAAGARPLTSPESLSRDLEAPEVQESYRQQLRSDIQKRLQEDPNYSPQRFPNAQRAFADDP
Turning to N42Q;N68Q;N121Q, the “effect of a mutation on the interaction” value is “with no effect”.

N42Q: the “effect of a mutation on the interaction” value was “with no effect”.

Regarding N68Q;N121Q, the “effect of a mutation on the interaction” value is reported as “with no effect”.

N121Q: the “effect of a mutation on the interaction” value is recorded as “with no effect”.

Turning to N68Q, the “effect of a mutation on the interaction” value is on record as “with no effect”.

N42Q;N121Q: the “effect of a mutation on the interaction” value is given as “with no effect”.

N42Q;N68Q: the “effect of a mutation on the interaction” value is given as “with no effect”.

The variants in another experiment derive from B2. The following applies: with nr3l1_human NCR3LG1, Q68D85.
Take N42Q;N68Q: the “effect of a mutation on the interaction” value is recorded as “disrupting interaction strength”.

In the case of N42Q;N121Q, the “effect of a mutation on the interaction” value was “disrupting interaction strength”.

As to N68Q, the “effect of a mutation on the interaction” value is on record as “decreasing interaction strength”.

With N68Q;N121Q, the “effect of a mutation on the interaction” value is given as “decreasing interaction strength”.

For the variant N121Q, the “effect of a mutation on the interaction” value is “with no effect”.

For N42Q, the “effect of a mutation on the interaction” value was “disrupting interaction strength”.

Turning to N42Q;N68Q;N121Q, the “effect of a mutation on the interaction” value was “disrupting interaction strength”.
